Measured values as given in patent US20250027945A1 (University of California, published 2025).
Residue numbers refer to the chain shown, from its start.

B1: recombinant human RYK protein used in KinExA (receptor, UniProt P34925 46-227, looked up)
chain: AAPAPRPPELQSASAGPSVSLYLSEDEVRRLIGLDAELYYVRNDLISHYALSFSLLVPSETNFLHFTWHAKSKVEYKLGFQVDNVLAMDMPQVNISVQGEVPRTLSVFRVELSCTGKVDSEVMILMQLNLTVNSSKNFTVLNFKRRKMCYKKLEEVKTSALDKNTSRTIYDPVHAAPTTSTR
notes: Legend prints 'RYK2'; also called recombinant human RYK2 protein
B2: 3C12 (antibody, V domains shown)
VH: QVQLKESGPGLVAPSQSLSITCTVSGFSLNGYGVNWVRQPPGKDLEWLGMIWGDGITEFNSALKSRLSISKDNSKSQVFLKMNSLQTEDTARYYCVRQGSGVWFAYWGQGTLVS
VL: DVLVTQTPLSLPVSLGDQASISCRSSQTIVHSNGNTYLEWYLQKPGQSPKLLIYKVSNRFSGVPDRFSGSGSGTDFTLKISRVEAEDLGVYYCFQGSHVPYTFGGGTKLEIK
notes: anti-human RYK mAb; also called 3C12 mAb
B3: 11E9 (antibody, V domains shown)
VH: QVQLKESGPGLVAPSQSLSITCTVSGFSLNGYGVNWVRQPPGKDLEWLGMIWGDGITEFNSALKSRLSISKDNSKSQVFLKMNSLQTEDTARYYCVRQGSGVWFAYWGQGTLS
VL: B2 VL with S61C
notes: anti-human RYK mAb; also called 11E9 mAb
B4: 7-H10 anti-human RYK mAb (antibody, V domains shown)
VH: QVQLQQSGAELAKPGTSVKLSCKASGYIFTNYDINWVRQRPEQGLEWIGWIFPGDDSTKYNEKFEGKAALTTDKSSNTAYIQLSRLTSGDSAVYFCTRYHYYGSSLGWSFDVWGAGTSVTVSS
VL: EIVLTQSPALMAASPGEKVTITCSVSSRISSINLHWYQQKSETSPKTWIYGTSNLASGVPSRFSGSGSGTSYSLTISNMEAEDAATYYCQQWSSYPYTFGGGTKVEIK
notes: Mouse hybridoma mAb, kappa light chain, detected with anti-mouse IgG; also called mAb 7-H10

Tests used:
7-H10 anti-human RYK mAb = target: B4; assay: KinExA 3200: free mAb captured on RYK-coated particles in the presence of rising molar concentration of soluble RYK
Procedure: (§1) Analysis was performed using a KinExA 3200 instrument. FIG. 7A: The proportion of anti-human RYK mAb bound to particles coated with RYK protein (y-axis) in the presence of increasing molar (M) concentration of soluble RYK competitor (x-axis) is shown for 2-D11 mAb (upper left panel) and 7-H10 mAb (lower left panel).

[1] = target: T1, recombinant extracellular protein of mouse RYK (mouse, UniProt Q01887 35-211); assay: dot blot of recombinant RYK proteins (rabbit IgG tag) on nylon membrane, probed with the mAb, anti-mouse IgG-HRP
T1 construct: also called mRYK; not shown: rabbit IgG tag for purification
Procedure: FIGS. 4A-4B illustrate the […] of amino acids required for binding of anti-human RYK mAb to the extracellular domain of human RYK (SEQ ID NO:129). FIG. 4A illustrates experiments in which binding of 2-D11, 7-H10, 3-C12, 11-E9, 6-B5, 6-D10 and sheep anti-RYK mAb was assessed using recombinant human RYK proteins (SEQ ID NO:129) in which one amino acid that differs between human and mouse RYK within the extracellular domain was replaced with the corresponding amino acid of mouse RYK. Each recombinant protein was transferred onto nylon membrane, probed with the indicated anti-RYK mAb or Sheep anti-RYK Ab, and detected with an anti-mouse IgG or donkey-anti-sheep antibody conjugated with horse radish peroxidase. Rabbit anti-IgG blotting is a positive for protein blotting and detection as recombinant proteins have a rabbit IgG tag for purification. Alignment of the protein sequences of the extracellular domain of human and mouse RYK are shown in the lower panel and the boxed amino acids indicate the amino acids changes made for each recombinant protein. […]

[2] = target: T1, recombinant extracellular protein of …; assay: immunoblot of recombinant extracellular protein on nylon membrane
Procedure: FIG. 4A illustrates experiments in which binding of 2-D11, 7-H10, 3-C12, 11-E9, 6-B5, 6-D10 and sheep anti-RYK mAb was assessed using recombinant human RYK proteins (SEQ ID NO:129) in which one amino acid that differs between human and mouse RYK within the extracellular domain was replaced with the corresponding amino acid of mouse RYK. Each recombinant protein was transferred onto nylon membrane, probed with the indicated anti-RYK mAb or Sheep anti-RYK Ab, and detected with an anti-mouse IgG or donkey-anti-sheep antibody conjugated with horse radish peroxidase. […]
The anti-human RYK mAbs, 2-D11 and 7-H10, appear specific for an amino terminal epitope of human Ryk (residues 46-57) that are distinct from those in mouse Ryk (FIG. 3); these mAbs also bind mutant forms of Ryk containing amino acid substitutions in human Ryk at positions that differ from that of the highly homologous mouse Ryk to assimilate mouse Ryk at the site of substitution, with amino acid sequence shown in FIG. 3, as shown by immunoblot analyses of recombinant extracellular proteins of human or mouse or each of the various mutant forms of human Ryk (FIG. 4) For this, the binding of 2-D11, 7-H10, or Sheep anti-RYK mAb was assessed using recombinant extracellular RYK proteins as specified in the Key. […]

[3] = target: B1; assay: KinExA 3200, soluble RYK competitor against RYK-coated particles
Procedure: as §1

Binder: B1
IC50 (read off the curve) (7-H10 anti-human RYK mAb): ~20 nM

Binder: B2
binding result [1]: no binding

Binder: B3
binding result [1]: no binding

Binder: B4
binding result [2]: no binding
Kd [3]: 10.6 nM
